The values that follow come from the nanobody polyreactivity screen of Harvey et al. (2022).

The nature of the data set: yeast display, Sf9 membrane polyspecificity reagent, FACS + sequencing; frameworks hold sequencing errors. Summed up:
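A nanobody's polyreactivity label depends on the gate it was sorted from. Yeast display cells were stained with 10% biotinylated, detergent-solubilized Sf9 membrane reagent for 1 hour at 4 °C, enriched on streptavidin microbeads and sorted by FACS. The low and high (top ~1%) gates were set on anti-HA fluorescence for expression and streptavidin fluorescence for reagent binding.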
In the case of “QVQLVESGGGLVQAGGSLRLSCAASGITFSRNAMGWYRQAPGKERELVATITSGGSTNYADSVKGRFTISRDNAKNTVYLQMNSLKPEDTAVYYCNAVWNTLISGRSYDYWGQGTQVTVSS”, the “polyreactivity (PSR sort gate)” value was “low polyreactivity”. Take “QVQLVESGGGLVQAGGSLRLSCAASGITFSRNAMGWYRQAPGKERELVAVISTRGGRTYYADSVKGRFTISRDNAKNTVYLQMISLKPEDTAVYYCAASPDPYWRRMDYWGQGTQVTVSS”: the “polyreactivity (PSR sort gate)” value was “high polyreactivity”. For “QVQLVESGGGLVQAGGSLRLSCAASGITFSRNVMGWYRQAPGKERELVAAISRSGGRTYYADSVKGRFTISRDNAKNTVYLQMNSLKPEDTAVYDCNRDIGGTSVLDDYWGQGTQVTVSS” the value was “low polyreactivity”. For “QVQLVESGGGLVQAGGSLRLSCAASGITFSRNVMGWYRQAPGKERELVAAISRSGGTTTYADSVKGRFTISRDNAKNTVYLQMNSLKPEDTAVYYCNVYDYPTYDYWGQGTQVSVSS”, the “polyreactivity (PSR sort gate)” value is given as “low polyreactivity”. Turning to “QVQLVESGGGLVQAGGSLRLSCAASGITFSRYAMGWYRQAPGKERELVAAITVSGGTTYYADSVKGRFTISRDNAKNTVYLQMNSLKPEDTAVYYCAAVRRKTAGGLEDYWGQGTQVTVSS”, the “polyreactivity (PSR sort gate)” value was “high polyreactivity”. Under “QVQLVESGGGLVQAGGSLRLSCAASGITFSRYAMGWYRQAPVKERELVAAITWDGGRTYYADSVKGRFTISRANAKNTVYLQMNSRKPEDTADYYCSAGSAWWYYWGQGTQVTVSS” stands “high polyreactivity”; under “QVQLVESGGGLVQAGGSLRLSCAASGITFSTYAMGWYIQAPGKERELVAAITKSGGSTYYADSVKGRFTISRDNAKNTVYLQMNRLKPEDTAVYYCAARFPHRHYLLYTYDYWGQGTQVTVSS”, “low polyreactivity”. Consider “QVQLVESGGGLVQAGGSLRLSCAASGITFSVYAMGWYRQAPGKERELVAAINYDSGSTYYADSVKGRFTISRDNAKNTVYLQMNSLKPEDTAVYYCATDGVNPFYAFDYWGQGTQVTVSS”, for which the “polyreactivity (PSR sort gate)” value is “low polyreactivity”.

“QVQLVESGGGLVQAGGSLRLSCAASGITFSVYTMGWYIQAPGKERELVAAIDSDGITNYADSVKGRFTISRDNEKNNVYLQMNSLKPEDTAVSYCAKQTGRADGVSGFDYWGQGTQVTVSS”: the “polyreactivity (PSR sort gate)” value was “low polyreactivity”. Under “QVQLVESGGGLVQAGGSLRLSCAASGITFSYNAMGWYRQAAGKERELVAAITWSGDSTYYADSVKGRFTISRDNAKNTVYLQMNSLKPEDTAVYYCNAVPSQHDEFDYWGQGTQVTVSS” stands “low polyreactivity”; under “QVQLVESGGGLVQAGGSLRLSCAASGITFSYNAMGWYRQAPGKERQLVAAITWSGDSTYYADSVKGRFTISRDNAKNTVYLQMNSLKREDTAVYYCNARYLRLRYPYTDEYNYWGQGTQVTVSS”, “low polyreactivity”.

For “QVQLVESGGGLVQAGGSLRLSCAASGITFSYNVMGWYRQAPGKERELVAAISDGGSTYYADSVKGRFTISRDNAKNTVYLLMNSLKPEDTAVYDCAKGYPYTYSQQVIYDYYYWGQGTQVTVSS”, the “polyreactivity (PSR sort gate)” value was “low polyreactivity”. Consider “QVQLVESGGGLVQAGGSLRLSCAASGITFSYNVMGWYRQAPGKERELVAAISDGGSTYYADSVKGRFTISRDNAKNTVYLQMNSLKPEDTAVYYCAADSPVDYLYALYLYVRDDYWGQGTQVTVSS”, for which the “polyreactivity (PSR sort gate)” value is recorded as “low polyreactivity”. Consider “QVQLVESGGGLVQAGGSLRLSCAASGITFTAYAMGWYRHAPGKERELVATINSTGITNYADSVKGRFTISRDNAKNTVYLQMNSLKPEDTAVYYCAADLLDNSSYDGMDYWGQGTQVTVSS”, for which the “polyreactivity (PSR sort gate)” value is on record as “low polyreactivity”. Under “QVQLVESGGGLVQAGGSLRLSCAASGITFTAYAMGWYRQAPGKERELVATINSTGITNYADSVKGRFTISRDNAKNTFYLQMNCLKAEDTAVSYCGADVLDISSYDGMDYWGKGTQVTVSS” stands “low polyreactivity”; under “QVQLVESGGGLVQAGGSLRLSCAASGITFTAYDMGWYRQAPWKEREFVAAISTIGGSTNYADSVKGRFTISRDNAKNTVYLQMNSLKPEDTAVYYCFAWVYQFGYWGQGTQVTVSS”, “low polyreactivity”.

Regarding “QVQLVESGGGLVQAGGSLRLSCAASGITFTEYAMGWYRQAPGKERELVAAITGSGTSTYYADSVKGRFTISRDNAKNTVYLQMNSLKPEDTAVYYCAARTRGTAYNYWGQGTQVTVSS”, the “polyreactivity (PSR sort gate)” value is reported as “high polyreactivity”.

For “QVQLVESGGGLVQAGGSLRLSCAASGITFTEYAMGWYRQAPGKERELVATISYGGGITYYADSVKGRFTISRDNAKNTVYLQMNSLKPEDTAVYYCAADGLSQVQRGMDYWGQGTQVNVSS”, the “polyreactivity (PSR sort gate)” value is “low polyreactivity”. For “QVQLVESGGGLVQAGGSLRLSCAASGITFTGYDMGWYRQAPGIERELVADISNGSSTDYADSVKGRFTISRDNAKKTVYLQMNSLNPEDTAVYYCAVDIDNWSEYDYWGQGTQVTVSS”, the “polyreactivity (PSR sort gate)” value is “low polyreactivity”. For “QVQLVESGGGLVQAGGSLRLSCAASGITFTGYDMGWYRQAPGIERELVADISNGSSTDYADSVKGRFTISRDNAKNTVYFQMISLKPEDTAVYYCAVDIDNWSEYDYWGHGTQVTVSS” the value was “low polyreactivity”; for “QVQLVESGGGLVQAGGSLRLSCAASGITFTGYSMGWYRQAPGKERELVAVISEKGGSTYADSVKGRFTISRDNAKNTVYLQMNSLKPEDTAVYYCAARLWWPYSTAWAKMDYWGQGTQVTVSS”, “low polyreactivity”. For “QVQLVESGGGLVQAGGSLRLSCAASGITFTINAMGWYRQAPGKERELVAVIDVSGGSTDYADSVKGRFTISRDNAKNTVYLQMNSLKPEDTAVYYCAADEYDVYYYAYREYYWGQGTQVTVSS” the value was “low polyreactivity”; for “QVQLVESGGGLVQAGGSLRLSCAASGITFTLYAMGWYRQAPGKERELVASISWSGGSTYYADSVKGRFTISRDIAKNTVYLQMNSLKPEDTAVYYCNAVYARKYYYSHGYDYWGQGTQVTVSS”, “high polyreactivity”; for “QVQLVESGGGLVQAGGSLRLSCAASGITFTLYAMGWYRQAPGKERELVASISWSGGSTYYADSVKGRFTISRDNAKNTVYLQMNSLKPEDTAVYYCNAVYARKYYYSHGYDYWGQGTQVTVSS”, “high polyreactivity”. Under “QVQLVESGGGLVQAGGSLRLSCAASGITFTPYAMGWYRQAPGKERELVAAISWRGGSTYYADSVKGRFTISRDNAKNTVYLQMNSLKPEDTAVYYCAKDGRGYGRYSRYYTGDYWGQGTQVTVST” stands “low polyreactivity”. As to “QVQLVESGGGLVQAGGSLRLSCAASGITFTRNAMGWYRQAPGKERELVAAISRRSGSTYYADSVKGRFTISRDNAKNTVYLQMNSLKPEDTAVYYCAATYSVHFVRYGYWGQGTQVTVSS”, the “polyreactivity (PSR sort gate)” value is “high polyreactivity”. Take “QVQLVESGGGLVQAGGSLRLSCAASGITFTRYTKGWYRQAPGKERELVAAIRGSGGSTYYADSVKGRFTISRDNAKNTVYLEMNSLKAEDTAVYFCAADKYLYGRLTRNFHYYYWGLGTQVTVSS”: the “polyreactivity (PSR sort gate)” value was “low polyreactivity”. Under “QVQLVESGGGLVQAGGSLRLSCAASGITFTSYAMGWYRQAPGKERELVAAISTRVGRTYYADSVKGRFTISRDNAKNTVYLQMNSLKPEDTAVYYCAADRISQGYSTYNYWGQGTQVTVSS” stands “high polyreactivity”; under “QVQLVESGGGLVQAGGSLRLSCAASGITFTSYVMGWYRQAPGKERELVAAIRWSGGRTYYADSVKGRFTISRDNAKNTDYLQMNTLKPAATAVYYCNRVTRSHVDYWGQGTQVTVSS”, “high polyreactivity”.

As for “QVQLVESGGGLVQAGGSLRLSCAASGITFTVNAMGWYRQAPGKERELVAAISNDGSTYYADSVKGRFTISRDNAKNTVYLQMNSLKPEDTAVYYCAADTWDDFGPYGYDYWGQGTQVTVSS”, the “polyreactivity (PSR sort gate)” value is on record as “low polyreactivity”. As for “QVQLVESGGGLVQAGGSLRLSCAASGITFTYYAMGWYRPAPGKERELVAAITDRGGRTYYADSVKWRFTISRDNAKKTVYLQMNRLNPDDTAVYFCNTVPTSNSRTSVYFPYYYWGQGTQVTVSS”, the “polyreactivity (PSR sort gate)” value is given as “high polyreactivity”. Turning to “QVQLVESGGGLVQAGGSLRLSCAASGITFVAYAMGWYRQAPGKERELVAAISGGGGSTYYADSVKGRFTISRDNAKNTVYLQMNSLKPEDTAVYYCAGVYTYPLGYYHYTYDYWGQGTQVTVSS”, the “polyreactivity (PSR sort gate)” value is “low polyreactivity”. As for “QVQLVESGGGLVQAGGSLRLSCAASGITFVDYDMGWYRQAPGKERELVAAISWSGGSTYYADSVKGRFTISRDNAKNTVYLQMNSLKPEDTAVYYFAAEVIWWVREYYYWGQGTQVTVSS”, the “polyreactivity (PSR sort gate)” value is on record as “low polyreactivity”. With “QVQLVESGGGLVQAGGSLRLSCAASGITFVGNDMGWYRQAPGKERELVATISSSGTRTYYADSVKGRFTISRDNAKNTVYLQMNSLKQEDTAVYYCAARWRSYITYWFDYWGQGTQVTVSS”, the “polyreactivity (PSR sort gate)” value is “low polyreactivity”. “QVQLVESGGGLVQAGGSLRLSCAASGITFVHYAMGWYIQAPGKERELVAAISEDGGSTYYADSVKGRFTISRDNAKNTVYLQMNSLKPEDTAVYYCNTYSGLWPYWRLYDYWGQGTQVTVSS”: the “polyreactivity (PSR sort gate)” value is “high polyreactivity”. Under “QVQLVESGGGLVQAGGSLRLSCAASGITFVLNVMGWNRQAPGKERELVAAISASGGRTYYADSVKGRFTISRDNAKHTVYLQMNSLKPEDTAVYYCNAVLPRYTFRSGVFEYDWGQGTQVTVSS” stands “high polyreactivity”; under “QVQLVESGGGLVQAGGSLRLSCAASGITFVNYAMGWYRQAPGKERELVAAISGDGGNTYYADSVKGRFTISRDNAKNTVYLQMNSLKPEDTAVYYCAATPYLYRLYGYWYRPYYYWGQGTQVTVSS”, “high polyreactivity”. As to “QVQLVESGGGLVQAGGSLRLSCAASGITFVQYAMGWYRQAPGKERELVAAIRRGGSTSYADSVKGRFTISRDNAKNTVYLQMNSLKPEDTAVYYCARRYVWPITPLDVEYWGQGTQVTVSS”, the “polyreactivity (PSR sort gate)” value was “low polyreactivity”. As for “QVQLVESGGGLVQAGGSLRLSCAASGITFVRYAMAWYRQAPGKEREFVAAINSIVGRTYYADSVKGRFTISRDNAKNTVYLQMNSLKPEDTAVYYCAADSNVRFGMDYWGQGTQVTVSS”, the “polyreactivity (PSR sort gate)” value is on record as “low polyreactivity”. Under “QVQLVESGGGLVQAGGSLRLSCAASGITFVRYAMGWYRQAPGKEREFVARISRSGASTYYADSVKGRFTISRDNAKNTVYLQMNSLKPEDTAVYYCNKVYISREDYWGQGTQVTVSS” stands “high polyreactivity”.
